Interaction score data for 5 molecules are collected here from PMC10397247.

The target of experiment [1] is T1, 4H932-bH.
T1 chain: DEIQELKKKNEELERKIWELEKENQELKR
The experiment can be described thus: two-hybrid library CCNG1.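 Further: natural log of median RNA to DNA barcode read ratio; higher means stronger binding.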

The target of experiment [2] is T2, 4H730-bH.
T2 chain: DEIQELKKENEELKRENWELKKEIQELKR
The experiment is described as follows: two-hybrid library CCNG1.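 Further: natural log of median RNA to DNA barcode read ratio; higher means stronger binding.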

Experiment [3] addresses T3, 4H796-bH.
T3 chain: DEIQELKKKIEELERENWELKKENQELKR
The experiment can be described thus: two-hybrid library CCNG1.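 Further: natural log of median RNA to DNA barcode read ratio; higher means stronger binding.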

Experiment [4] has as its target T4, 4H949-bH.
T4 chain: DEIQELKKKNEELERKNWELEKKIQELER
The experiment can be described thus: two-hybrid library CCNG1.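 Further: natural log of median RNA to DNA barcode read ratio; higher means stronger binding.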

Experiment [5] concerns the target T5, 4H619-bN.
T5 chain: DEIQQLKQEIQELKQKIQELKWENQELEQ
The experiment can be described thus: two-hybrid library CCNG1.

Experiment [6] has as its target T6, 4H906-bN.
T6 chain: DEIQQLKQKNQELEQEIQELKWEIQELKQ
The experiment is described as follows: two-hybrid library CCNG1.

Experiment [7] addresses T7, 4H850-bN.
T7 chain: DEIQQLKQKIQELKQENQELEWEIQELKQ
The experiment is described as follows: two-hybrid library CCNG1.

The target in experiment [8] is T8, 4H796-bN.
T8 chain: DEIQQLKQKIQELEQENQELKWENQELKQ
The experiment can be described thus: two-hybrid library CCNG1.

For experiment [9], the target named is T9, 4H949-bN.
T9 chain: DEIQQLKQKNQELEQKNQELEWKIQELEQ
The experiment is described as follows: two-hybrid library CCNG1.

For experiment [10], the target named is T10, 4H932-bN.
T10 chain: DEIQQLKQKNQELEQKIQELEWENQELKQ
The experiment can be described thus: two-hybrid library CCNG1.

In experiment [11] the target is T11, 4H730-bN.
T11 chain: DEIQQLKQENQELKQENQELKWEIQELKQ
The experiment can be described thus: two-hybrid library CCNG1.

Experiment [12] concerns the target T12, P9.
T12 chain: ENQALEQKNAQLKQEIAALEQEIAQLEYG
The experiment can be described thus: two-hybrid library CC1.

Experiment [13] concerns the target T13, 4H3591-AA.
T13 chain: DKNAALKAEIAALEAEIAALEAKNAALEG
The experiment is described as follows: two-hybrid library CCmax. To be noted: mean of both orientations.

For experiment [14], the target named is T14, 4H3102-AA.
T14 chain: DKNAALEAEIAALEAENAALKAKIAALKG
The experiment is described as follows: two-hybrid library CCmax.

In experiment [15] the target is T15, 4H478-AA.
T15 chain: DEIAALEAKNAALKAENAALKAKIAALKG
The experiment is described as follows: two-hybrid library CCmax. To be noted: mean of both orientations.

Experiment [16] deals with T16, 4H3121-AA.
T16 chain: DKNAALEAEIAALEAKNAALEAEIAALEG
The experiment can be described thus: two-hybrid library CCmax. Particulars: mean of both orientations.

Experiment [17] concerns the target T17, 4H3939-AA.
T17 chain: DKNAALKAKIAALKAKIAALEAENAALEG
The experiment is described as follows: two-hybrid library CCmax. To be noted: mean of both orientations.

The target of experiment [18] is T18, 4H428-AA.
T18 chain: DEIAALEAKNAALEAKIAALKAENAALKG
The experiment can be described thus: two-hybrid library CCmax. Particulars: mean of both orientations.

In experiment [19] the target is T19, 4H3709-AA.
T19 chain: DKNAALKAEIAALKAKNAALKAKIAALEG
The experiment can be described thus: two-hybrid library CCmax. To be noted: mean of both orientations.

Experiment [20] deals with T20, 4H3417-AA.
T20 chain: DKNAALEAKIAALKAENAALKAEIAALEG
The experiment is described as follows: two-hybrid library CCmax. Particulars: mean of both orientations.

Experiment [21] has as its target T21, 4H971-AA.
T21 chain: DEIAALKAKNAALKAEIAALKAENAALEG
The experiment can be described thus: two-hybrid library CCmax. Particulars: mean of both orientations.

Experiment [22] deals with T22, 4H391-AA.
T22 chain: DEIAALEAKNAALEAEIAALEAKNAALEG
The experiment is described as follows: two-hybrid library CCmax. Particulars: mean of both orientations.

The target in experiment [23] is T23, 4H3920-AA.
T23 chain: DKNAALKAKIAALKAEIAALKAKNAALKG
The experiment is described as follows: two-hybrid library CCmax. To be noted: mean of both orientations.

Experiment [24] has as its target T24, 4H656-AA.
T24 chain: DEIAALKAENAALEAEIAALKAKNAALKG
The experiment can be described thus: two-hybrid library CCmax. Particulars: mean of both orientations.

Experiment [25] has as its target T25, 4H675-AA.
T25 chain: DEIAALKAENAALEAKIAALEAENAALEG
The experiment can be described thus: two-hybrid library CCmax. Particulars: mean of both orientations.

In experiment [26] the target is T26, 4H3446-AA.
T26 chain: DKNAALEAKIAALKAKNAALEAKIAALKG
The experiment is described as follows: two-hybrid library CCmax. Particulars: mean of both orientations.

Experiment [27] addresses T27, 4H497-AA.
T27 chain: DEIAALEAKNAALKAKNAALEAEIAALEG
The experiment is described as follows: two-hybrid library CCmax. Particulars: mean of both orientations.

The target of experiment [28] is T28, 4H3628-AA.
T28 chain: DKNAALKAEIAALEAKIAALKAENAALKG
The experiment can be described thus: two-hybrid library CCmax. Particulars: mean of both orientations.

For experiment [29], the target named is T29, 4H3666-AA.
T29 chain: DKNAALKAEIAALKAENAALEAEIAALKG
The experiment can be described thus: two-hybrid library CCmax. Particulars: mean of both orientations.

B1: 4H730-bH (peptide)
chain: DEIQELKKENEELKRENWELKKEIQELKR
For the molecule B1, the interaction score in experiment [1] was -1.05; in experiment [2], 1.5; in experiment [3], -0.301; in [4], 0.0896.

B2: 4H619-bN (peptide)
chain: DEIQQLKQEIQELKQKIQELKWENQELEQ
For the molecule B2, the interaction score in [5] is 1.24; in [6] it was -0.494; in [7], -0.223.

B3: 4H730-bN (peptide)
chain: DEIQQLKQENQELKQENQELKWEIQELKQ
Consider B3, for which the interaction score in experiment [8] is -1.29; in experiment [9] it was -0.718; in [10] it was -0.353; in experiment [11], 1.55.

B4: P9 (peptide)
chain: ENQALEQKNAQLKQEIAALEQEIAQLEYG
Regarding B4, in [12], the interaction score was -2.32.

B5: 4H3102-AA (peptide)
chain: DKNAALEAEIAALEAENAALKAKIAALKG
As for B5, the interaction score in [13] is -1.16; in experiment [14] it was 1.69; in [15], 1.81; in experiment [16] it was -0.0964; in [17], -1.39; in experiment [18], 0.651. Moreover, the interaction score in experiment [19] was 1.43; in [20], 2.29; in [21], -0.422; in experiment [22] it was -0.9; in [23] it was -1.16; in [24] it was 0.534. For the same molecule, the interaction score in experiment [25] was -0.00286; in experiment [26] it was 0.0866; in experiment [27] it was -1.18; in experiment [28], -0.57; in experiment [29], 1.73.
